Results: patent publication US20220143148A1, “COMPOSITIONS AND METHODS FOR MODULATING CGRP SIGNALING TO REGULATE INTESTINAL INNATE LYMPHOID CELLS” (The Broad Institute, Inc., priority 2019, published 2022)

Test system: small intestinal immune cells
Assay: Droplet-based scRNA-seq of small intestinal immune cells (LP and PP), OVA vs PBS, clustering and differential expression
Type: in vivo, mouse
Source text: To comprehensively characterize small intestinal immune cells, Applicants generated scRNA-Seq profiles for 58,067 immune cells collected from lamina propria (LP) and Peyer's patch (PP) regions at steady state and after induction of a type 2 inflammatory reaction to ovalbumin (OVA) (Brandt et al., 2003) (FIGS. 1A and 8A). To ensure sufficient representation of rare cells, Applicants combined a normalization strategy—removing by flow sorting either a portion of IgD+ naïve B cells, which are the most abundant cell type in PPs, or all CD19+ and CD3+ T cells (FIG. 8B, Methods)—with profiling of a sufficiently large number of cells number (P>0.99 to recover at least 15 cells from each cluster, Methods) by massively parallel scRNA-seq (Haber et al., 2017) (Methods). Applicants obtained 36,797 and 21,270 high quality cells passing initial filtering (Methods) from PP and LP regions, respectively.
Overall, Applicants annotated 27 cell subsets across the two compartments, spanning T cells, B cells, ILCs, dendritic cells (DCs), myeloid cells and stromal cells, in frequencies ranging from 0.07% to 14%. Briefly, Applicants first partitioned the cells from the PP regions by unsupervised clustering (Methods) into 46 clusters, retained the 97% of cells that were robustly assigned cell identities in each cluster (Methods), assigned the cells from the LP regions to the 46 clusters using a classifier (Methods), and visualized the data with scvis (Ding et al., 2018), a deep generative model-based method (FIGS. 1B and 8C, Methods). Next, Applicants identified genes that were differentially expressed between the cells in each cluster and the remaining cells (Table 1, Methods), as well as between pairs of clusters (Table 2), to elucidate identities of similar cell types/states. Applicants excluded from downstream analysis clusters mostly consisting of contaminants from epithelium, likely doublets, or cells with a small number of Unique Molecular Identifiers (UMIs) (FIGS. 1C and 8D), or lacking distinct markers (Methods). Altogether, Applicants retained 27 clusters spanning 85% of the cells and each associated with distinct marker genes (FIG. 8E, Methods).
To induce allergic reaction to OVA, 6 to 7 weeks old mice were sensitized twice, two weeks apart, with 50 μg of OVA plus 1 mg of aluminum potassium sulfate adjuvant via intraperitoneal injection. Two weeks later, mice were orally administered with 50 mg of OVA on every other day for a total of five times. 1 μg of α-CGRP peptide was administered simultaneously when indicated. Mice were deprived of food for 3-4 hours in cages with wood chip bedding for limiting antigen degradation in the stomach before each intragastric challenge.
Isolation of cells from Peyer's patches (PPs). Peyer's patches (PPs) were carefully dissected from the small intestine under a stereo microscope using a fine scissor, pierced once with a fine forcep. Tissues were digested in freshly made digestion buffer (RPMI-1640 containing 100 μg/ml Liberase™ and 50 μg/ml DNase I at 37° C. on a roto-mixer. After 15 min, tissues were very gently mixed using a 1 ml pipette. The supernatant was collected and added to ice-cold MACS buffer (pH 7.4; PBS plus 2% FCS and 2 mM EDTA). Pre-warmed (37° C.) fresh digestion buffer was added to the remaining tissues. After rotation at 37° C. for 15 min, the mixture was vigorously mixed using a 1 ml pipette for 1 min. Supernatants from the two steps were combined and passed through 70 μm filters and stained for FACS (below).
Isolation of cells from the lamina propria (LP). The small intestines were opened longitudinally and washed in ice-cold PBS. For scRNA-seq, roughly 0.5 cm of fragments from each of the distal, middle and proximal regions without visible PPs were collected. Epithelial cells were dissociated by tissue rotation in pre-warmed (37° C.) PBS containing 10 mM EDTA at 37° C. for 15 min, followed by additional incubation on ice for 15 min. Tissues were then shaken vigorously. […]

B1: OVA (protein, UniProt P01012 2-386, looked up)
Ovalbumin: GSIGAASMEFCFDVFKELKVHHANENIFYCPIAIMSALAMVYLGAKDSTRTQINKVVRFDKLPGFGDSIEAQCGTSVNVHSSLRDILNQITKPNDVYSFSLASRLYAEERYPILPEYLQCVKELYRGGLEPINFQTAADQARELINSWVESQTNGIIRNVLQPSSVDSQTAMVLVNAIVFKGLWEKAFKDEDTQAMPFRVTEQESKPVQMMYQIGLFRVASMASEKMKILELPFASGTMSMLVLLPDEVSGLEQLESIINFEKLTEWTSSNVMEERKIKVYLPRMKMEEKYNLTSVLMAMGITDVFSSSANLSGISSAESLKISQAVHAAHAEINEAGREVVGSAEAGVDAASVSEEFRADHPFLFCIKHIATNAVLFFGRCVSP
Txnip: LN (average fold change) (cluster ID 5, PP, OVA vs PBS): 0.660
Uba52: LN (average fold change) (cluster ID 5, PP, OVA vs PBS): 0.277
Ucp2: LN (average fold change) (cluster ID 5, PP, OVA vs PBS): 0.325
Wdr89: LN (average fold change) (cluster ID 5, PP, OVA vs PBS): 0.291
Zfp36l2: LN (average fold change) (cluster ID 5, PP, OVA vs PBS): 0.865
AY036118: percentage of expressing cells in OVA-treated group (cluster ID 6, PP): 0.426
Atf3: percentage of expressing cells in OVA-treated group (cluster ID 6, PP): 0.091
Atp5h: percentage of expressing cells in OVA-treated group (cluster ID 6, PP): 0.963
B3gnt8: percentage of expressing cells in OVA-treated group (cluster ID 6, PP): 0.486
Bcl2l11: percentage of expressing cells in OVA-treated group (cluster ID 6, PP): 0.257
Bhlhe40: percentage of expressing cells in OVA-treated group (cluster ID 6, PP): 0.465
Bloc1s2: percentage of expressing cells in OVA-treated group (cluster ID 6, PP): 0.784
Btg2: percentage of expressing cells in OVA-treated group (cluster ID 6, PP): 0.801
Ccl4: percentage of expressing cells in OVA-treated group (cluster ID 6, PP): 0.848
Cd68: percentage of expressing cells in OVA-treated group (cluster ID 6, PP): 0.861
Cd83: percentage of expressing cells in OVA-treated group (cluster ID 6, PP): 0.092
Cdv3: percentage of expressing cells in OVA-treated group (cluster ID 6, PP): 0.414
Clcn3: percentage of expressing cells in OVA-treated group (cluster ID 6, PP): 0.35
Clec10a: percentage of expressing cells in OVA-treated group (cluster ID 6, PP): 0.532
Clec2d: percentage of expressing cells in OVA-treated group (cluster ID 6, PP): 0.578
Coq10b: percentage of expressing cells in OVA-treated group (cluster ID 6, PP): 0.242
Crem: percentage of expressing cells in OVA-treated group (cluster ID 6, PP): 0.34
Cxcr3: percentage of expressing cells in OVA-treated group (cluster ID 6, PP): 0.516
Cxcr4: percentage of expressing cells in OVA-treated group (cluster ID 6, PP): 0.561
D13Ertd608e: percentage of expressing cells in OVA-treated group (cluster ID 6, PP): 0.947
Ddit4: percentage of expressing cells in OVA-treated group (cluster ID 6, PP): 0.221
Ddx3x: percentage of expressing cells in OVA-treated group (cluster ID 6, PP): 0.436
Defa24: percentage of expressing cells in OVA-treated group (cluster ID 6, PP): 0.099
Dnajc7: percentage of expressing cells in OVA-treated group (cluster ID 6, PP): 0.987
Dusp1: percentage of expressing cells in OVA-treated group (cluster ID 6, PP): 0.406
Dusp5: percentage of expressing cells in OVA-treated group (cluster ID 6, PP): 0.668
Dusp18: percentage of expressing cells in OVA-treated group (cluster ID 6, PP): 0.091
Egr1: percentage of expressing cells in OVA-treated group (cluster ID 6, PP): 0.143
Emp3: percentage of expressing cells in OVA-treated group (cluster ID 6, PP): 0.936
Erdr1: percentage of expressing cells in OVA-treated group (cluster ID 6, PP): 0.149
Fabp2: percentage of expressing cells in OVA-treated group (cluster ID 6, PP): 0.048
Fam46c: percentage of expressing cells in OVA-treated group (cluster ID 6, PP): 0.221
Filip1l: percentage of expressing cells in OVA-treated group (cluster ID 6, PP): 0.384
Fkbp5: percentage of expressing cells in OVA-treated group (cluster ID 6, PP): 0.161
Fosb: percentage of expressing cells in OVA-treated group (cluster ID 6, PP): 0.332
Fosl2: percentage of expressing cells in OVA-treated group (cluster ID 6, PP): 0.141
Foxp1: percentage of expressing cells in OVA-treated group (cluster ID 6, PP): 0.719
Fyn: percentage of expressing cells in OVA-treated group (cluster ID 6, PP): 0.756
Gapdh: percentage of expressing cells in OVA-treated group (cluster ID 6, PP): 0.911
Gapt: percentage of expressing cells in OVA-treated group (cluster ID 6, PP): 0.657
Gnb1: percentage of expressing cells in OVA-treated group (cluster ID 6, PP): 0.515
Grasp: percentage of expressing cells in OVA-treated group (cluster ID 6, PP): 0.193
Gtf2i: percentage of expressing cells in OVA-treated group (cluster ID 6, PP): 0.542
H2-Aa: percentage of expressing cells in OVA-treated group (cluster ID 6, PP): 0.947
H2-Ab1: percentage of expressing cells in OVA-treated group (cluster ID 6, PP): 0.949
H2-Eb1: percentage of expressing cells in OVA-treated group (cluster ID 6, PP): 0.907
H2afj: percentage of expressing cells in OVA-treated group (cluster ID 6, PP): 0.935
Hes6: percentage of expressing cells in OVA-treated group (cluster ID 6, PP): 0.474
Hist1h1c: percentage of expressing cells in OVA-treated group (cluster ID 6, PP): 0.522
Hist2h4: percentage of expressing cells in OVA-treated group (cluster ID 6, PP): 0.165
Ier2: percentage of expressing cells in OVA-treated group (cluster ID 6, PP): 0.432
Ier5: percentage of expressing cells in OVA-treated group (cluster ID 6, PP): 0.937
Ifi30: percentage of expressing cells in OVA-treated group (cluster ID 6, PP): 0.883
Ifrd1: percentage of expressing cells in OVA-treated group (cluster ID 6, PP): 0.241
Igha: percentage of expressing cells in OVA-treated group (cluster ID 6, PP): 0.681
Igkc: percentage of expressing cells in OVA-treated group (cluster ID 6, PP): 0.944
Itpkb: percentage of expressing cells in OVA-treated group (cluster ID 6, PP): 0.296
Jun: percentage of expressing cells in OVA-treated group (cluster ID 6, PP): 0.769
Junb: percentage of expressing cells in OVA-treated group (cluster ID 6, PP): 0.745
Jund: percentage of expressing cells in OVA-treated group (cluster ID 6, PP): 0.92
Kdm6b: percentage of expressing cells in OVA-treated group (cluster ID 6, PP): 0.307
Klf4: percentage of expressing cells in OVA-treated group (cluster ID 6, PP): 0.147
Klk1: percentage of expressing cells in OVA-treated group (cluster ID 6, PP): 0.964
Kmt2e: percentage of expressing cells in OVA-treated group (cluster ID 6, PP): 0.596
Lag3: percentage of expressing cells in OVA-treated group (cluster ID 6, PP): 0.605
Lgals1: percentage of expressing cells in OVA-treated group (cluster ID 6, PP): 0.985
Lmnb1: percentage of expressing cells in OVA-treated group (cluster ID 6, PP): 0.189
Ly6c1: percentage of expressing cells in OVA-treated group (cluster ID 6, PP): 0.991
Lyz1: percentage of expressing cells in OVA-treated group (cluster ID 6, PP): 0.035
Mcl1: percentage of expressing cells in OVA-treated group (cluster ID 6, PP): 0.459
